Source: patent US20180134765A1 (AVIDBIOTICS, published 2018)

B1: wt MICA-Fv (designed binder)
chain: EPHSLRYNLTVLSWDGSVQSGFLTEVHLDGQPFLRCDRQKCRAKPQGQWAEDVLGNKTWDRETRDLTGNGKDLRMTLAHIKDQKEGLHSLQEIRVCEIHEDNSTRSSQHFYYDGELFLSQNLETKEWTMPQSSRAQTLAMNVRNFLKEDAMKTKTHYHAMHADCLQELRRYLKSGVVLRRTVPPMVQVTRSEASGGSGDRVTITCRASQDVSTAVAWYQQKPGKAPKLLIYSASFLYSGVPSRFSGSGSGTDFTLTISSLQPEDFATYYCQQSYTTPPTFGQGTKVEIKGGSSRSSSSGGGGSGGGGEVQLVESGGGLVQPGGSLRLSCAASGFTFTSTGISWVRQAPGKGLEWVGRIYPTNGSTNYADSVKGRFTISADTSKNTAYLQMNSLRAEDTAVYYCARTYGIYDLYVDYTEYVMDYWGQGTLVTVSSGGSSRSSSSGGGGSGGGGDIQMTQSPSSLSASGGSGQITVTCRASGFYPWNITLSWRQDGVSLSHDTQQWGDVLPDGQGTYQTWVATRISQGEEQRFTCYMEHSGQHSTHPVPSGKGSHHHHHH
notes: His-tagged α1-α2-α3-Fv fusion, made in 293 cells; also called natural α1-α2 domain α3-Fv fusion
B2: MICv48-Fv (designed binder)
chain: EPHSLRYNLTVLSWDGSVQSGFLTEVHLDGQPFLRCDRQKCRAKPQGQWAEDVLGNKTWDRETRDLTGWGKDLRMTLAHIKDQKEGLHSLQEIRVCEIHEDNSTRSSQHFYYDGELFLSQNLETLEWTMPQSSRAQTLAMNVRNFLKEDAMATDTHYIAMRADCLAELRRYLKSGVVLRRTVPPMVQVTRSEASGGSGDRVTITCRASQDVSTAVAWYQQKPGKAPKLLIYSASFLYSGVPSRFSGSGSGTDFTLTISSLQPEDFATYYCQQSYTTPPTFGQGTKVEIKGGSSRSSSSGGGGSGGGGEVQLVESGGGLVQPGGSLRLSCAASGFTFTSTGISWVRQAPGKGLEWVGRIYPTNGSTNYADSVKGRFTISADTSKNTAYLQMNSLRAEDTAVYYCARTYGIYDLYVDYTEYVMDYWGQGTLVTVSSGGSSRSSSSGGGGSGGGGDIQMTQSPSSLSASGGSGQITVTCRASGFYPWNITLSWRQDGVSLSHDTQQWGDVLPDGQGTYQTWVATRISQGEEQRFTCYMEHSGQHSTHPVPSGKGSHHHHHH
notes: His-tagged α1-α2-α3-Fv fusion; also called DSM48 α1-α2-α3-Fv fusion
B3: MICv28-Fv (designed binder)
chain: EPHSLRYNLTVLSWDGSVQSGFLTEVHLDGQPFLRCDRQKCRAKPQGQWAEDVLGNKTWDRETRDLTGNGKDLRMTLAHIKDQKEGLHSLQEIRVCEIHEDNSTRSSQHFYYDGELFLSQNLETLEWTMPQSSRAQTLAMNVRNFLKEDAMKTKTHYHAMRADCLSELRRYLKSGVVLRRTVPPMVQVTRSEASGGSGDRVTITCRASQDVSTAVAWYQQKPGKAPKLLIYSASFLYSGVPSRFSGSGSGTDFTLTISSLQPEDFATYYCQQSYTTPPTFGQGTKVEIKGGSSRSSSSGGGGSGGGGEVQLVESGGGLVQPGGSLRLSCAASGFTFTSTGISWVRQAPGKGLEWVGRIYPTNGSTNYADSVKGRFTISADTSKNTAYLQMNSLRAEDTAVYYCARTYGIYDLYVDYTEYVMDYWGQGTLVTVSSGGSSRSSSSGGGGSGGGGDIQMTQSPSSLSASGGSGQITVTCRASGFYPWNITLSWRQDGVSLSHDTQQWGDVLPDGQGTYQTWVATRISQGEEQRFTCYMEHSGQHSTHPVPSGKGSHHHHHH
notes: His-tagged α1-α2-α3-Fv fusion; also called DSM28 α1-α2-α3-Fv fusion
B4: MICv27-Fv (designed binder)
chain: EPHSLRYNLTVLSWDGSVQSGFLTEVHLDGQPFLRCDRQKCRAKPQGQWAEDVLGNKTWDRETRDLTGWGKDLRMTLAHIKDQKEGLHSLQEIRVCEIHEDNSTRSSQHFYYDGELFLSQNLETLEWTMPQSSRAQTLAMNVRNFLKEDAMKTKTHYHAMRADCLSELRRYLKSGVVLRRTVPPMVQVTRSEASGGSGDRVTITCRASQDVSTAVAWYQQKPGKAPKLLIYSASFLYSGVPSRFSGSGSGTDFTLTISSLQPEDFATYYCQQSYTTPPTFGQGTKVEIKGGSSRSSSSGGGGSGGGGEVQLVESGGGLVQPGGSLRLSCAASGFTFTSTGISWVRQAPGKGLEWVGRIYPTNGSTNYADSVKGRFTISADTSKNTAYLQMNSLRAEDTAVYYCARTYGIYDLYVDYTEYVMDYWGQGTLVTVSSGGSSRSSSSGGGGSGGGGDIQMTQSPSSLSASGGSGQITVTCRASGFYPWNITLSWRQDGVSLSHDTQQWGDVLPDGQGTYQTWVATRISQGEEQRFTCYMEHSGQHSTHPVPSGKGSHHHHHH
notes: His-tagged α1-α2-α3-Fv fusion; also called DSM27 α1-α2-α3-Fv fusion
B5: MICv20-Fv (designed binder)
chain: EPHSLRYNLTVLSWDGSVQSGFLTEVHLDGQPFLRCDRQKCRAKPQGQWAEDVLGNKTWDRETRDLTAWGKDLRMTLAHIKDQKEGLHSLQEIRVCEIHEDNSTRSSQHFYYDGELFLSQNLETLEWTMPQSSRAQTLAMNVRNFLKEDAMQTDTHYRAMHADCLFELRRYLKSGVVLRRTVPPMVQVTRSEASGGSGDRVTITCRASQDVSTAVAWYQQKPGKAPKLLIYSASFLYSGVPSRFSGSGSGTDFTLTISSLQPEDFATYYCQQSYTTPPTFGQGTKVEIKGGSSRSSSSGGGGSGGGGEVQLVESGGGLVQPGGSLRLSCAASGFTFTSTGISWVRQAPGKGLEWVGRIYPTNGSTNYADSVKGRFTISADTSKNTAYLQMNSLRAEDTAVYYCARTYGIYDLYVDYTEYVMDYWGQGTLVTVSSGGSSRSSSSGGGGSGGGGDIQMTQSPSSLSASGGSGQITVTCRASGFYPWNITLSWRQDGVSLSHDTQQWGDVLPDGQGTYQTWVATRISQGEEQRFTCYMEHSGQHSTHPVPSGKGSHHHHHH
notes: His-tagged α1-α2-α3-Fv fusion; also called DSM20 α1-α2-α3-Fv fusion
B6: MICv42-Fv (designed binder)
chain: EPHSLRYNLTVLSWDGSVQSGFLTEVHLDGQPFLRCDRQKCRAKPQGQWAEDVLGNKTWDRETRDLTGWGKDLRMTLAHIKDQKEGLHSLQEIRVCEIHEDNSTRSSQHFYYDGELFLSQNLETLEWTMPQSSRAQTLAMNVRNFLKEDAMETDTHYHAMRADCLQELRRYLKSGVVLRRTVPPMVQVTRSEASGGSGDRVTITCRASQDVSTAVAWYQQKPGKAPKLLIYSASFLYSGVPSRFSGSGSGTDFTLTISSLQPEDFATYYCQQSYTTPPTFGQGTKVEIKGGSSRSSSSGGGGSGGGGEVQLVESGGGLVQPGGSLRLSCAASGFTFTSTGISWVRQAPGKGLEWVGRIYPTNGSTNYADSVKGRFTISADTSKNTAYLQMNSLRAEDTAVYYCARTYGIYDLYVDYTEYVMDYWGQGTLVTVSSGGSSRSSSSGGGGSGGGGDIQMTQSPSSLSASGGSGQITVTCRASGFYPWNITLSWRQDGVSLSHDTQQWGDVLPDGQGTYQTWVATRISQGEEQRFTCYMEHSGQHSTHPVPSGKGSHHHHHH
notes: His-tagged α1-α2-α3-Fv fusion; also called DSM42 α1-α2-α3-Fv fusion
B7: MICv49-Fv (designed binder)
chain: EPHSLRYNLTVLSWDGSVQTGFLTEVHLDGQPFLRCDRQKCRAKPQGQWAEDVLGNKTWDRETRDLTQWGKDLRMTLAHIKDQKEGLHSLQEIRVCEIHEDNSTRSSQHFYYDGELFLSQNLETKEWTMPQSSRAQTLAMNVRNFLKEDAMFTDTHYRAMTADCLTELRRYLKSGVVLRRTVPPMVQVTRSEASGGSGDRVTITCRASQDVSTAVAWYQQKPGKAPKLLIYSASFLYSGVPSRFSGSGSGTDFTLTISSLQPEDFATYYCQQSYTTPPTFGQGTKVEIKGGSSRSSSSGGGGSGGGGEVQLVESGGGLVQPGGSLRLSCAASGFTFTSTGISWVRQAPGKGLEWVGRIYPTNGSTNYADSVKGRFTISADTSKNTAYLQMNSLRAEDTAVYYCARTYGIYDLYVDYTEYVMDYWGQGTLVTVSSGGSSRSSSSGGGGSGGGGDIQMTQSPSSLSASGGSGQITVTCRASGFYPWNITLSWRQDGVSLSHDTQQWGDVLPDGQGTYQTWVATRISQGEEQRFTCYMEHSGQHSTHPVPSGKGSHHHHHH
notes: His-tagged α1-α2-α3-Fv fusion; also called DSM49 α1-α2-α3-Fv fusion
B8: MICv25-Fv (designed binder)
chain: EPHSLRYNLTVLSWDGSVQSGFLTEVHLDGQPFLRCDRQKCRAKPQGQWAEDVLGNKTWDRETRDLTGWGKDLRMTLAHIKDQKEGLHSLQEIRVCEIHEDNSTRSSQHFYYDGELFLSQNLETLEWTMPQSSRAQTLAMNVRNFLKEDAMETDTHYHAMRADCLSELRRYLKSGVVLRRTVPPMVQVTRSEASGGSGDRVTITCRASQDVSTAVAWYQQKPGKAPKLLIYSASFLYSGVPSRFSGSGSGTDFTLTISSLQPEDFATYYCQQSYTTPPTFGQGTKVEIKGGSSRSSSSGGGGSGGGGEVQLVESGGGLVQPGGSLRLSCAASGFTFTSTGISWVRQAPGKGLEWVGRIYPTNGSTNYADSVKGRFTISADTSKNTAYLQMNSLRAEDTAVYYCARTYGIYDLYVDYTEYVMDYWGQGTLVTVSSGGSSRSSSSGGGGSGGGGDIQMTQSPSSLSASGGSGQITVTCRASGFYPWNITLSWRQDGVSLSHDTQQWGDVLPDGQGTYQTWVATRISQGEEQRFTCYMEHSGQHSTHPVPSGKGSHHHHHH
notes: His-tagged α1-α2-α3-Fv fusion; also called DSM25 α1-α2-α3-Fv fusion
B9: ULBP6-α3-iFv.2 (designed binder)
chain: EPHSLCYDITVIPKFRPGPRWCAVQGQVDEKTFLHYDCGNKTVTPVSPLGKKLNVTTAWKAQNPVLREVVDILTEQLLDIQLENYTPKEPLTLQARMSCEQKAEGHSSGSWQFSIDGQTFLLFDSEKRMWTTVHPGARKMKEKWENDKDVAMSFHYISMGDCIGWLEDFLMGMDSTLEPSAGAPPMVQVTRSEASGGSGDRVTITCRASQDVSTAVAWYQQKPGKAPKLLIYSASFLYSGVPSRFSGSGSGTDFTLTISSLQPEDFATYYCQQSYTTPPTFGQGTKVEIKGGSSRSSSSGGGGSGGGGEVQLVESGGGLVQPGGSLRLSCAASGFTFTSTGISWVRQAPGKGLEWVGRIYPTNGSTNYADSVKGRFTISADTSKNTAYLQMNSLRAEDTAVYYCARTYGIYDLYVDYTEYVMDYWGQGTLVTVSSGGSSRSSSSGGGGSGGGGDIQMTQSPSSLSASGGSGQITVTCRASGFYPWNITLSWRQDGVSLSHDTQQWGDVLPDGQGTYQTWVATRISQGEEQRFTCYMEHSGQHSTHPVPSGKGSHHHHHH
notes: His-tagged, monomeric, insect cells; also called NKG2DL-α3-iFv.2 (ULBP6)

Target: T1, His-avitag-natural NKG2D (human, biotin on the avitag sequence (BirA))
T1 construct: also called natural NKG2D ectodomain; wild type NKG2D
T1 chain: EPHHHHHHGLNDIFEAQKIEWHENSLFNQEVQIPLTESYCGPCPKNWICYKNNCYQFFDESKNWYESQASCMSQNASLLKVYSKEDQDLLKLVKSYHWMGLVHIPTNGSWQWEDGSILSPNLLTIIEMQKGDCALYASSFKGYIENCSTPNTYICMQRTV
Assay: biolayer interferometry (Octet), biotinylated natural NKG2D ectodomain on the surface, 100 nM fusion protein

Going from B1 to B2, the Kd falls from 13.8 nM to 0.244 nM (57-fold).

B3 and B4 are within 1.5-fold of each other in Kd: 0.33 nM for the first, 0.411 nM for the second.

B5 and B6 are within 1.5-fold of each other in Kd: 0.0851 nM for the first, 0.109 nM for the second.

First: B7
Second: B8
The Kd of the first is 12-fold higher: 0.746 nM for the first, 0.0616 nM for the second.

Going from B1 to B2, the koff falls from 0.0018 s⁻¹ to 0.000145 s⁻¹ (12-fold).

B3 and B4 are within 1.5-fold of each other in koff: 7.03e-05 s⁻¹ for the first, 8.54e-05 s⁻¹ for the second.

B5 and B6 are within 1.5-fold of each other in koff: 3.05e-05 s⁻¹ for the first, 3.78e-05 s⁻¹ for the second.

B7 and B8 are within 1.5-fold of each other in koff: 2.76e-05 s⁻¹ for the first, 2.88e-05 s⁻¹ for the second.

Going from B1 to B2, the kon rises from 130000 M⁻¹ s⁻¹ to 595000 M⁻¹ s⁻¹ (4.6-fold).

B3 and B4 are within 1.5-fold of each other in kon: 246000 M⁻¹ s⁻¹ for the first, 208000 M⁻¹ s⁻¹ for the second.

B5 and B6 are within 1.5-fold of each other in kon: 359000 M⁻¹ s⁻¹ for the first, 347000 M⁻¹ s⁻¹ for the second.

First: B7
Second: B8
The kon of the first is 13-fold lower: 37000 M⁻¹ s⁻¹ for the first, 467000 M⁻¹ s⁻¹ for the second.

Each binder was assayed against T2, human NKG2D-Fc (human, UniProt P26718 78-216, limits assumed) (assay: ELISA: protein captured on FGFR3 detected with NKG2D-Fc).
T2 construct: also called natural NKG2D-Fc; not shown: Fc part
T2 sequence (looked up): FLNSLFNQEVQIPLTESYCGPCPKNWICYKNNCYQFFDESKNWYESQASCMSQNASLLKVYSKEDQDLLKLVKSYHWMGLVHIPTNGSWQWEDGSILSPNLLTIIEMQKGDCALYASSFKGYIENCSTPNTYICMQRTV

B9: binds.
